In patent US20240368285A1 (HEFEI TG IMMUNOPHARMA, published 2024):

T1: MICA on human tumor cells (A-375, A549, HCT-15, MDA-MB-231) (human, UniProt Q29983 24-383)
T1 construct: whole, on cells
T1 sequence (looked up): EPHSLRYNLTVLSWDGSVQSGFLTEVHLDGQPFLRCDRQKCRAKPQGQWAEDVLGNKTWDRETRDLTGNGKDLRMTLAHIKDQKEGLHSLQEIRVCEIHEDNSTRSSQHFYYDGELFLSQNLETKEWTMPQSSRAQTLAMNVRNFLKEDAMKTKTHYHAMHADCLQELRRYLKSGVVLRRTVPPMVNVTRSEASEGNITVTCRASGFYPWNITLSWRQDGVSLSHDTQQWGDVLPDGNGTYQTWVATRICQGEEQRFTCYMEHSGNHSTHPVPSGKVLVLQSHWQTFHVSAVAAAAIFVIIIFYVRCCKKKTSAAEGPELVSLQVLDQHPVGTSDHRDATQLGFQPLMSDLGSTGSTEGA


How the values were obtained:
[1] = biological target: T1, MICA on human tumor cells (A-375, A549, …); assay: flow cytometry on A-549 cells, Alexa-647 goat anti-human secondary, % binding ratio
Procedure: (§1) (2) Tumor cells were diluted to a density of 2×10⁶/mL with PBS and added into a 1.5 ml EP tube in a volume of 100 l/tube. 10 l/tube of goat serum was added into the EP tube; and blocking was conducted at 4° C. for 30 min. […] The tube was incubated at 4° C. for 30 min. 1 mL of PBS was added into the EP tube, and centrifugation was conducted 4° C. at a rate of 3,500 rpm for 5 min. The supernatant was removed. Then, the EP tube was washed once with the PBS, and the supernatant was removed after centrifugation. The cells were resuspended with PBS in a volume of 100 l/tube. An Alexa-647 labeled goat anti-human secondary antibody (purchased from Jackson lab) was added into the tube in a volume of 1 l/tube, and the tube was incubated in the dark at 4° C. for 30 min. The tube was washed twice with PBS, and the supernatant was removed after centrifugation. The cells were resuspended with the PBS in a volume of 200 l/tube, and detection was conducted by a flow cytometer. The results are as shown in FIG. 17A and FIG. 17B, FIG. 18A and FIG. 18B, FIG. 19A and FIG. 19B, and FIG. 20A and FIG. 20B.

MICA008α3-Fc = biological target: T2, MICA008α3-Fc (human); assay: ELISA on coated MICA*008 α3-Fc (1 µg/ml), HRP anti-human Fab secondary, OD450
T2 construct: also called MICA*008-Fc; domain α3 of MICA-008 Fc fusion protein

MICA004α3-Fc = biological target: T3, MICA004α3-Fc (human); assay: ELISA on coated MICA*004 α3-Fc (1 µg/ml), HRP anti-human Fab secondary, OD450
T3 construct: also called MICA*004-Fc; domain α3 of MICA-004 Fc fusion protein

[2] = biological target: T1, MICA on human tumor cells (A-375, A549, …); assay: flow cytometry on HCT-15 cells, Alexa-647 goat anti-human secondary, % binding ratio
Procedure: as §1

[3] = biological target: T1, MICA on human tumor cells (A-375, A549, …); assay: flow cytometry on A-375 cells, Alexa-647 goat anti-human secondary, % binding ratio
Procedure: as §1

MICA002α3-Fc = biological target: T4, MICA002α3-Fc (human); assay: ELISA on coated MICA*002 α3-Fc (1 µg/ml), HRP anti-human Fab secondary, OD450
T4 construct: Produced in the Applicant's laboratory; also called MICA*002-Fc; domain α3 of MICA-002 Fc fusion protein

[4] = biological target: T1, MICA on human tumor cells (A-375, A549, …); assay: flow cytometry competition on HCT-15 cells; competitor: Biotin-h5A1002, detected with Alexa-647 streptavidin; % binding ratio of Biotin-h5A1002
Procedure: HCT-15 cells were diluted to a density of 2×10⁶/mL with PBS and added into a 1.5 ml EP tube in a volume of 100 l/tube. 10 l/tube of goat serum was added into the EP tube, and blocking was conducted at 4° C. for 30 min. […] The tube was incubated at 4° C. for 30 min. A biotin-labeled affinity maturation antibody Biotin-h5A1002 (having a heavy chain sequence as set forth in SEQ ID NO: 13 and a light chain sequence as set forth in SEQ ID NO: 14) was added. The tube was incubated at 4° C. for 30 min. 1 mL of PBS was added into the EP tube, and centrifugation was conducted 4° C. at a rate of 3,500 rpm for 5 min. The supernatant was removed. The EP tube was washed once with the PBS, and the supernatant was removed after centrifugation. The cells were resuspended with PBS in a volume of 100 l/tube. An Alexa-647 labeled Streptavidin secondary antibody (purchased from Biolegend) was added into the tube in a volume of 1 l/tube, and the tube was incubated in the dark at 4° C. for 30 min. The tube was washed twice with PBS, and the supernatant was removed after centrifugation. The cells were resuspended with the PBS in a volume of 200 μl/tube, and detection was conducted by a flow cytometer.

[5] = biological target: T1, MICA on human tumor cells (A-375, A549, …); assay: flow cytometry on MDA-MB-231 cells, Alexa-647 goat anti-human secondary, % binding ratio
Procedure: as §1

MICB001α3-Fc = biological target: T5, MICB001α3-Fc; assay: ELISA on coated MICB*001 α3-Fc (1 µg/ml), HRP anti-human Fab secondary, OD450
T5 construct: also called MICB*001-Fc; domain α3 of MICB-001 Fc fusion protein

MICA005α3-Fc = biological target: T6, MICA005α3-Fc (human); assay: ELISA on coated MICA*005 α3-Fc (1 µg/ml), HRP anti-human Fab secondary, OD450
T6 construct: also called MICA*005-Fc; domain α3 of MICA-005 Fc fusion protein

MICB005α3-Fc = biological target: T7, MICB005α3-Fc; assay: ELISA on coated MICB*005 α3-Fc (1 µg/ml), HRP anti-human Fab secondary, OD450
T7 construct: also called MICB*005-Fc; domain α3 of MICB-005 Fc fusion protein
T7 sequence (chain, as listed by the source limits assumed): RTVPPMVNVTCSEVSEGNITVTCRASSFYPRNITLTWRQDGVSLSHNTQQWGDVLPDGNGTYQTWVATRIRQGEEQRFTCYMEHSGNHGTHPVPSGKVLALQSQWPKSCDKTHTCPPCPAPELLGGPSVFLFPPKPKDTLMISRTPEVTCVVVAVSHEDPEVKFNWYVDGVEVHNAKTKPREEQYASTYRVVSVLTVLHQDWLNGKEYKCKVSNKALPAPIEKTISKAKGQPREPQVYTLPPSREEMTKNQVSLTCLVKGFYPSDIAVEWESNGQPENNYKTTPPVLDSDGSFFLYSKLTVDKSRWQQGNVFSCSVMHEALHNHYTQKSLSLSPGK

T3 sequence (chain, as listed by the source limits assumed): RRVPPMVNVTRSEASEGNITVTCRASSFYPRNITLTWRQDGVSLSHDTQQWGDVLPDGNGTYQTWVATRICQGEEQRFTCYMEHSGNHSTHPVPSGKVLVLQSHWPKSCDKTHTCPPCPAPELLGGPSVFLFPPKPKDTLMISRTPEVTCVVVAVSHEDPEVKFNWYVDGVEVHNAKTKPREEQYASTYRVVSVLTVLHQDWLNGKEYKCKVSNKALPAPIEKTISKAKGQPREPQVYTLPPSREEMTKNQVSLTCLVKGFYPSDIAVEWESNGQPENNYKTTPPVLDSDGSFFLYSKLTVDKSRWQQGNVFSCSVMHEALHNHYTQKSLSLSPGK
T2 sequence (chain, as listed by the source limits assumed): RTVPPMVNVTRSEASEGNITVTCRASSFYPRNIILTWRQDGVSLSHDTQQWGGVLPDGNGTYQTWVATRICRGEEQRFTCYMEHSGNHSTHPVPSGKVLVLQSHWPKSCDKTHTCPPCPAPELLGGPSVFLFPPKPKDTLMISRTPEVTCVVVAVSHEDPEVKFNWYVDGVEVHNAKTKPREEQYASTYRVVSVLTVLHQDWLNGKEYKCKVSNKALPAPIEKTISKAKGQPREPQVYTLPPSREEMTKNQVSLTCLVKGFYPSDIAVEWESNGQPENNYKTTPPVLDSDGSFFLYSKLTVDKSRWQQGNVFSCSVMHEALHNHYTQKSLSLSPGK
T6 sequence (chain, as listed by the source limits assumed): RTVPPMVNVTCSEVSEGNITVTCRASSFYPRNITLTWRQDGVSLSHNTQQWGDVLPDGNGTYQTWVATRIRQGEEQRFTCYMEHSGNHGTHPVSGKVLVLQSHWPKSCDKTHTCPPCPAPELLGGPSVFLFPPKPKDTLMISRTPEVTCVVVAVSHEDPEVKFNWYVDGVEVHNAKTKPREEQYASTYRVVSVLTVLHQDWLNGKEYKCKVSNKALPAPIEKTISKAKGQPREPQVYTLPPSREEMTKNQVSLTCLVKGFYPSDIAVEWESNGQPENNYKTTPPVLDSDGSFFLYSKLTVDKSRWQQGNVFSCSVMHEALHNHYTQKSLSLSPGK
T4 sequence (chain, as listed by the source limits assumed): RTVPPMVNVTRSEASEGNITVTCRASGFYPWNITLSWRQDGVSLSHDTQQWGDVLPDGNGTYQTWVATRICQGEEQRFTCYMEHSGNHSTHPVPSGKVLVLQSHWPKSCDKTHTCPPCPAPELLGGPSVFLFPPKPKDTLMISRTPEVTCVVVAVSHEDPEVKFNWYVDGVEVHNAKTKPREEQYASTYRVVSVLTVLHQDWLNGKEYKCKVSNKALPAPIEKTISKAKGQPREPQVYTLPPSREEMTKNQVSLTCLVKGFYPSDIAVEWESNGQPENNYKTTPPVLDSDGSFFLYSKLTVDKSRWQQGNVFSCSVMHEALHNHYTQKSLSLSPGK
T5 sequence (chain, as listed by the source limits assumed): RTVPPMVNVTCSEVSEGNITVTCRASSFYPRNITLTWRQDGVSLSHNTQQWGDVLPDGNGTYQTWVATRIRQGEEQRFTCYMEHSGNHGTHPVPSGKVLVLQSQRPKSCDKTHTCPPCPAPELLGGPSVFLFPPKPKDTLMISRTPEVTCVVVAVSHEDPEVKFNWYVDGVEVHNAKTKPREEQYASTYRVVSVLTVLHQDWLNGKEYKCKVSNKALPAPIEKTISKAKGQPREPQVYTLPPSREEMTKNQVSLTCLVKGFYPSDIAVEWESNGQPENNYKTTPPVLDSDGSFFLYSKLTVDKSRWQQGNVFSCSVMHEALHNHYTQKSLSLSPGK

Binder	EC50 (read off the curve) [1] [µg/mL]	EC50 (read off the curve) (MICA008α3-Fc) [µg/mL]	EC50 (read off the curve) (MICA004α3-Fc) [µg/mL]	EC50 (read off the curve) [2] [µg/mL]	EC50 (read off the curve) [3] [µg/mL]	EC50 (read off the curve) (MICA002α3-Fc) [µg/mL]	IC50 (read off the curve) [4] [µg/mL]	EC50 (read off the curve) [5] [µg/mL]	EC50 (read off the curve) (MICB001α3-Fc) [µg/mL]	EC50 (read off the curve) (MICA005α3-Fc) [µg/mL]	EC50 (read off the curve) (MICB005α3-Fc) [µg/mL]
antibody CLN-619 (Cullinan) (antibody, human IgG1, kappa, V domains shown, hIgG1 subtype) VH: QVQLVESGGGLVKPGGSLRLSCAASGFTFSNYAMSWIRQAPGKGLEWVSYISPGGDYIYYADSVKGRFTISRDNAKNSLYLQMNSLRAEDTAVYYCTTDRRHYGSYAMDYWGQGTLVTVSS VL: DIVMTQSPLSLPVTPGEPASISCRSSKSLLHSNLNTYLYWFLQKPGQSPQILIYRMSNLASGVPDRFSGSGSGTAFTLKISRVEAEDVGVYYCMQHLEYPFTFGPGTKLEIKR	~0.7	~0.1	~0.04	~0.3	~0.7	~0.07	~4	~0.7	~0.05	~0.2	~0.04
antibody 1D5V11 (Genentech) (antibody, human IgG1, kappa, V domains shown, also called homogeneous antibody 1D5V11) VH: EIQLVQSGAEVKKPGASVKVSCKASGYAFTSQNIYWVRQAPGQGLEWIGYIEPYNVVPMYNPKFKGRATLTVDKSTSTAYLELSSLRSEDTAVYYCARSGSSNFDYWGQGTLVTVSS VL: DIQLTQSPSSLSASVGDRVTITCSASSSISSHYLHWYQQKPGKSPKLLIYRTSNLASGVPSRFSGSGSGTDYTLTISSLQPEDFATYYCQQGSSLPLTFGQGTKVEIKR	~0.4	~0.07	~0.04	~0.1	~0.3	~0.05	~5	~0.3	~0.03	~0.09	~0.04
